These are literature values, as cited in US20240408194A1, “DNA ORIGAMI SUBUNIT VACCINE FOR PREVENTION OF SARS-CoV-2 VARIANT INFECTION” (priority 2021, published 2024).

For this data set, the target named is T1, fibrinogen (Homo sapiens, UniProt P02675+P02679).
T1 sequence (P02675 31-491): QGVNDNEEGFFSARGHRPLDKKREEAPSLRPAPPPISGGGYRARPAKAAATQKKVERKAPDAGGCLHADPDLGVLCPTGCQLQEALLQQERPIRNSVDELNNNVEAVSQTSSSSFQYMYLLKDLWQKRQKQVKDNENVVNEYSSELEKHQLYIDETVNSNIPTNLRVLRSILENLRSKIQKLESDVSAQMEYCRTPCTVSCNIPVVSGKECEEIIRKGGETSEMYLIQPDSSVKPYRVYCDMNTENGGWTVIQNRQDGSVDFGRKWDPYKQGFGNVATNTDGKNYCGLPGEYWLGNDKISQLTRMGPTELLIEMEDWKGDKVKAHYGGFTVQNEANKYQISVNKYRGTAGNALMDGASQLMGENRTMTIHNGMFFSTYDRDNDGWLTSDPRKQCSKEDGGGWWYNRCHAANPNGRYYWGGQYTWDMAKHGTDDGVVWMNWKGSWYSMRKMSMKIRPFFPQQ
T1 sequence (P02679 27-453): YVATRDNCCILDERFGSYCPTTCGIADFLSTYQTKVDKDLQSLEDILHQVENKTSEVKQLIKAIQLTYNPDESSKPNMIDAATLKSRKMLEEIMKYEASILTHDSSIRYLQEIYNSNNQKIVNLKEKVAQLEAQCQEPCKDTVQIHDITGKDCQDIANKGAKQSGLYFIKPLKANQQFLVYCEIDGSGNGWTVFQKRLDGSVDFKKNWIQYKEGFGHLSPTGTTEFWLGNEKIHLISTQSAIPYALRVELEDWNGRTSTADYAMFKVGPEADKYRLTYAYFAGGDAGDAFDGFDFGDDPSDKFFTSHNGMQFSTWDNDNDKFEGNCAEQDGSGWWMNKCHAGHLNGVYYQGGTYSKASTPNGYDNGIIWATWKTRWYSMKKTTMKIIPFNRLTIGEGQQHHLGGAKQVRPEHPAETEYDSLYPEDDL
T1 sequence (P02671 20-629 partner limits assumed): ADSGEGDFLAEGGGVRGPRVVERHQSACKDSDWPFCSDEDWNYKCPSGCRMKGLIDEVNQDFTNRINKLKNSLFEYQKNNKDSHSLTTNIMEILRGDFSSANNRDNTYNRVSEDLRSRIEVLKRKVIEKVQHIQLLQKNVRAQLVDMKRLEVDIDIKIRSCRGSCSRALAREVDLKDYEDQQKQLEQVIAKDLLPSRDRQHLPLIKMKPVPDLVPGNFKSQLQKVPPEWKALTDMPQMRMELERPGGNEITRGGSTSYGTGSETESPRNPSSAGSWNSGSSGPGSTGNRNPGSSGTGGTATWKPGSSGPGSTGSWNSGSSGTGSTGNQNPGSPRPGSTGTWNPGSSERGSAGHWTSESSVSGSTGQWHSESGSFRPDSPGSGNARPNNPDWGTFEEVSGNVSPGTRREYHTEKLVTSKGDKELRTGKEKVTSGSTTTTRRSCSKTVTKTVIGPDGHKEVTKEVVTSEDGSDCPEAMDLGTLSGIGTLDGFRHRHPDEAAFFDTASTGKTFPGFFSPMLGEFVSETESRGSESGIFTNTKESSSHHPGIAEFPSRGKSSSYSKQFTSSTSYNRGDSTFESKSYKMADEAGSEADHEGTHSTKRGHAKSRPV
The settings on record: hydrophobic pocket domains of fibrinogen; cited from earlier work.

For “GPRPXX: short fibrin knob peptide (SEQ ID NO: 3) that recognizes hydrophobic pocket domains of fibrinogen”, the equilibrium dissociation constant (Kd) (usually a measure of binding affinity in units of concentration) was 5 to 10 µM.
